Laboratory results taken from article PMC11371828 (Nature Communications, 2024).
Substitutions are numbered along the chain they refer to.

Experiments:
Experiment in all cases: pull-down
[1] = biological target: T1, 6xHis-IKKβ(1-669) EE K469E (human, UniProt O14920 1-669, S177E | S181E | K469E)
T1 sequence (looked up): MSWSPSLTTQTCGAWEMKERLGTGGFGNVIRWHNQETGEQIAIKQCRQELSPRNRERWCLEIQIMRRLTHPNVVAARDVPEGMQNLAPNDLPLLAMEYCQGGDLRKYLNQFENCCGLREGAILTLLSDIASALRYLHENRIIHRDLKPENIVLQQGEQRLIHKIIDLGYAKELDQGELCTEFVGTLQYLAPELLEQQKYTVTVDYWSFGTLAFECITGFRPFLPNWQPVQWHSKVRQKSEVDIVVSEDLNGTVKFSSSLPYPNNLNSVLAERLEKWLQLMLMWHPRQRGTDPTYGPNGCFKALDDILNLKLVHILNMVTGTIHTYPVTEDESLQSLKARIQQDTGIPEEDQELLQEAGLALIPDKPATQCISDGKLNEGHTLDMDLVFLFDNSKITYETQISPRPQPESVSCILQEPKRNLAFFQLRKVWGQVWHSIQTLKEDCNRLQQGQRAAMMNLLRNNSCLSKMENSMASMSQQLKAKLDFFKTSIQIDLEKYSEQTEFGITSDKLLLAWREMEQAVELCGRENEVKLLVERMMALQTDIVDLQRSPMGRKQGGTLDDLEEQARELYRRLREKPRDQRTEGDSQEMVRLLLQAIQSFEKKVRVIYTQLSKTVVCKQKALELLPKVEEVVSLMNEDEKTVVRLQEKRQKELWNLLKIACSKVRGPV

[2] = biological target: T2, 6xHis-IKKβ(1-669) EE K480E (human, UniProt O14920 1-669, S177E | S181E | K480E)
T2 sequence (looked up): T1 sequence (looked up) with E469K, K480E

[3] = biological target: T3, 6xHis-IKKβ(1-669) EE R460E (human, UniProt O14920 1-669, S177E | S181E | R460E)
T3 sequence (looked up): T1 sequence (looked up) with R460E, E469K

Measured: binding result

DELPYDDCVFGGQRLTL (peptide, UniProt P25963 301-317, looked up) [MBP-IκBα pep(s)]
binds: all assays above
